Assay: Electrophoretic mobility by capillary zone electrophoresis
Type: physicochemical
Details: for Electrophoretic Mobility (Average) / Electrophoretic Mobility: 32° C.
Method: Since electrophoretic mobility (ie, the ability of a drug/agent to migrate in an electric field) is an important aspect of electrotransport drug delivery, the electrophoretic mobility of the drug/agent being delivered is predictive of suitability for transdermal electrotransport delivery. Electrophoretic mobility measurements were performed using a capillary zone electrophoresis instrument (model 2100 P/ACE instrument, Beckman Instruments, Inc., Palo Alto, Calif.). At acid pH values DB-WAX, DB-1, DB-17 (J&W Scientific, Folsom, Calif.) capillary columns were used either with 50 or 100 micron internal diameter column and CElect H75 (Supelco, Bellefonte, Pa.) capillary column with a 75 micron internal diameter. At alkaline pH values uncoated silica capillaries of length 57 cm with an internal diameter of 75 microns were used with an applied voltage of 20 kV. If any electroosmotic flow was present, it was detected using a neutral marker such as 0.01% benzyl alcohol (SIGMA, St. Louis, Mo.) or 1/500 mesityl oxide (Applied Biosystems, Foster City, Calif.). The optimum voltage was determined by doing an Ohm's Law test on each buffer and capillary system. The temperature of the capillary columns was set at 32° C. and a two second pressure injection was done. A UV detector was used to monitor peptide and markers at either 214 or 280 nm.
Voltage injection had to be used for the 27 cm length column. The voltage applied varied depending on the capillary length.
The following equation was used to determine electrophoretic mobility μ. [formula]
If the electroosmotic flow is detected, the following equation can be used.
μpeptide =μtotal -μneutral marker
The measurement procedures described above were conducted on an aqueous solution of the protein insulinotropin, with TWEEN® 20 (MW=1126 g/mol) as the surfactant, with the following modifications. The insulinotropin donor solution concentration was 0.12 mg/mL. One test was run in 10 mM sodium borate at pH 9.0 and another test in 10 mM sodium chloroacetate at pH 3.5.
Fractional changes (%δ) are defined as the difference between the reading at a given surfactant concentration (Ec) minus the reading at zero surfactant (E0), the quantity divided by the difference between the reading at saturated surfactant concentration (Es) minus the reading at zero surfactant (E0), i. e. %δ=(Ec -E0)/(Es-E0).
The measurement procedures described earlier were conducted in this example on an aqueous solution containing insulinotropin as the agent and dodecyl trimethyl ammonium chloride (DTAC) as the ionic surfactant with the following modifications. […]
The same measurement procedures were conducted using an aqueous solution of salmon calcitonin as the agent and the zwitterionic dodecyl sulfobetaine as the surfactant with the following modifications. The temperature was initially 32° C., the surfactant concentration was varied up to 30 mM, and the calcitonin concentration was 0.06 to 0.08 mM. Tables 7, 8, and 9 below provide the results obtained in terms of polypeptide ellipticity expressed as a function of zwitterionic surfactant concentration at pH 3.5 in 12 mM sodium chloroacetate (Table 7), 5.0 in 4 mM piperazine HCI (Table 8), and 6.5 in 15 mM sodium cacodylate (Table 9), respectively. Table 8, in addition, provides the results obtained on electrophoretic mobility and HIC retention time in a phenyl superose column at pH 5.0.

[1] = pH 3.5, 10 mM sodium chloroacetate, TWEEN 20 0
[2] = pH 3.5, 10 mM sodium chloroacetate, TWEEN 20 0.133 mM
[3] = pH 3.5, 10 mM sodium chloroacetate, TWEEN 20 0.266 mM
[4] = pH 3.5, 10 mM sodium chloroacetate, TWEEN 20 0.515 mM
[5] = pH 3.5, 10 mM sodium chloroacetate, TWEEN 20 1.00 mM
[6] = pH 3.5, 10 mM sodium chloroacetate, TWEEN 20 2.28 mM
[7] = pH 3.5, 10 mM sodium chloroacetate, TWEEN 20 4.44 mM
[8] = pH 9.0, 10 mM sodium borate, TWEEN 20 0
[9] = pH 9.0, 10 mM sodium borate, TWEEN 20 0.133 mM
[10] = pH 9.0, 10 mM sodium borate, TWEEN 20 0.266 mM
[11] = pH 9.0, 10 mM sodium borate, TWEEN 20 0.515 mM
[12] = pH 9.0, 10 mM sodium borate, TWEEN 20 1.00 mM
[13] = pH 9.0, 10 mM sodium borate, TWEEN 20 2.28 mM
[14] = pH 9.0, 10 mM sodium borate, TWEEN 20 4.44 mM
[15] = pH 9.0, 10 mM sodium borate, TWEEN 20 8.88 mM
[16] = pH 9.0, 10 mM sodium borate, TWEEN 20 13.3 mM
[17] = pH 9.0, 10 mM sodium borate, TWEEN 20 20.0 mg/mL
[18] = pH 9.0, 10 mM sodium borate, TWEEN 20 25.0 mg/mL

## Insulinotropin: the protein insulinotropin
pH 3.5, 10 mM sodium chloroacetate, DTAC 0
  Electrophoretic Mobility (Average): 1.80 cm^2 /V-s × 10^-4
pH 3.5, 10 mM sodium chloroacetate, DTAC 0.83 mM
  Electrophoretic Mobility (Average): 1.82 cm^2 /V-s × 10^-4
pH 3.5, 10 mM sodium chloroacetate, DTAC 1.64 mM
  Electrophoretic Mobility (Average): 1.81 cm^2 /V-s × 10^-4
pH 3.5, 10 mM sodium chloroacetate, DTAC 20.0 mM
  Electrophoretic Mobility (Average): 3.46 cm^2 /V-s × 10^-4
pH 3.5, 10 mM sodium chloroacetate, DTAC 25.0 mM
  Electrophoretic Mobility (Average): 3.33 cm^2 /V-s × 10^-4
[1]
  Electrophoretic Mobility: -1.8 cm^2 /Vs ×10^-4
  Electrophoretic Mobility, fractional change (% δ): 0
[2]
  Electrophoretic Mobility: -1.72 cm^2 /Vs ×10^-4
  Electrophoretic Mobility, fractional change (% δ): 0.10
[3]
  Electrophoretic Mobility: -1.58 cm^2 /Vs ×10^-4
  Electrophoretic Mobility, fractional change (% δ): 0.28
[4]
  Electrophoretic Mobility: -1.32 cm^2 /Vs ×10^-4
  Electrophoretic Mobility, fractional change (% δ): 0.61
[5]
  Electrophoretic Mobility: -1.14 cm^2 /Vs ×10^-4
  Electrophoretic Mobility, fractional change (% δ): 0.84
[6]
  Electrophoretic Mobility: -1.08 cm^2 /Vs ×10^-4
  Electrophoretic Mobility, fractional change (% δ): 0.91
[7]
  Electrophoretic Mobility: -1.01 cm^2 /Vs ×10^-4
  Electrophoretic Mobility, fractional change (% δ): 1.00
[8]
  Electrophoretic Mobility: -1.06 cm^2 Vs × 10^-4
  Electrophoretic Mobility, fractional change (% δ): 0
[9]
  Electrophoretic Mobility: -1.05 cm^2 Vs × 10^-4
  Electrophoretic Mobility, fractional change (% δ): 0.02
[10]
  Electrophoretic Mobility: -1.01 cm^2 Vs × 10^-4
  Electrophoretic Mobility, fractional change (% δ): 0.09
[11]
  Electrophoretic Mobility: -1.00 cm^2 Vs × 10^-4
  Electrophoretic Mobility, fractional change (% δ): 0.11
[12]
  Electrophoretic Mobility: -0.89 cm^2 Vs × 10^-4
  Electrophoretic Mobility, fractional change (% δ): 0.32
[13]
  Electrophoretic Mobility: -0.73 cm^2 Vs × 10^-4
  Electrophoretic Mobility, fractional change (% δ): 0.62
[14]
  Electrophoretic Mobility: -0.62 cm^2 Vs × 10^-4
  Electrophoretic Mobility, fractional change (% δ): 0.83
[15]
  Electrophoretic Mobility: -0.61 cm^2 Vs × 10^-4
  Electrophoretic Mobility, fractional change (% δ): 0.85
[16]
  Electrophoretic Mobility: -0.55 cm^2 Vs × 10^-4
  Electrophoretic Mobility, fractional change (% δ): 0.96
[17]
  Electrophoretic Mobility: -0.58 cm^2 Vs × 10^-4
  Electrophoretic Mobility, fractional change (% δ): 0.91
[18]
  Electrophoretic Mobility: -0.53 cm^2 Vs × 10^-4
  Electrophoretic Mobility, fractional change (% δ): 1.00

## Salmon Calcitonin [reference compound]
pH 5.0, 4 mM piperazine-HCl, dodecyl sulfobetaine 0, calcitonin 0.076 mM
  Electrophoretic Mobility: 2.4 × 10^-4 cm^2 /V-sec
pH 5.0, 4 mM piperazine-HCl, dodecyl sulfobetaine 0.83 mM, calcitonin 0.076 mM
  Electrophoretic Mobility: 2.3 × 10^-4 cm^2 /V-sec
pH 5.0, 4 mM piperazine-HCl, dodecyl sulfobetaine 1.64 mM, calcitonin 0.075 mM
  Electrophoretic Mobility: 2.2 × 10^-4 cm^2 /V-sec
pH 5.0, 4 mM piperazine-HCl, dodecyl sulfobetaine 3.23 mM, calcitonin 0.074 mM
  Electrophoretic Mobility: 2.2 × 10^-4 cm^2 /V-sec
pH 5.0, 4 mM piperazine-HCl, dodecyl sulfobetaine 6.25 mM, calcitonin 0.072 mM
  Electrophoretic Mobility: 1.7 × 10^-4 cm^2 /V-sec
pH 5.0, 4 mM piperazine-HCl, dodecyl sulfobetaine 7.69 mM, calcitonin 0.071 mM
  Electrophoretic Mobility: 1.5 × 10^-4 cm^2 /V-sec
pH 5.0, 4 mM piperazine-HCl, dodecyl sulfobetaine 9.77 mM, calcitonin 0.069 mM
  Electrophoretic Mobility: 1.6 × 10^-4 cm^2 /V-sec
pH 5.0, 4 mM piperazine-HCl, dodecyl sulfobetaine 12.4 mM, calcitonin 0.067 mM
  Electrophoretic Mobility: 1.4 × 10^-4 cm^2 /V-sec
pH 5.0, 4 mM piperazine-HCl, dodecyl sulfobetaine 18.4 mM, calcitonin 0.062 mM
  Electrophoretic Mobility: 0.96 × 10^-4 cm^2 /V-sec
pH 5.0, 4 mM piperazine-HCl, dodecyl sulfobetaine 26.4 mM, calcitonin 0.056 mM
  Electrophoretic Mobility: 0.88 × 10^-4 cm^2 /V-sec
